Reference: patent US20180009871A1 (INTARCIA THERAPEUTICS, published 2018)
Where no end group is shown, it is not given here. [ ]: non-standard residue; d: D form. Aib = CC(C)(N)C(=O)O

B1: Compound A33 (peptide)
peptide: YSHGTFTSDHSKWLD[Aib]KRAQEFV[Aib]WLEDEPSSGAPPPS-OH
modifications: N-terminus assumed
SMILES: CC(C)C[C@H](NC(=O)[C@H](Cc1c[nH]c2ccccc12)NC(=O)[C@H](CCCCN)NC(=O)[C@H](CO)NC(=O)[C@H](Cc1c[nH]cn1)NC(=O)[C@H](CC(=O)O)NC(=O)[C@H](CO)NC(=O)[C@@H](NC(=O)[C@H](Cc1ccccc1)NC(=O)[C@@H](NC(=O)CNC(=O)[C@H](Cc1c[nH]cn1)NC(=O)[C@H](CO)NC(=O)[C@@H](N)Cc1ccc(O)cc1)[C@@H](C)O)[C@@H](C)O)C(=O)N[C@@H](CC(=O)O)C(=O)NC(C)(C)C(=O)N[C@@H](CCCCN)C(=O)N[C@@H](CCCNC(=N)N)C(=O)N[C@@H](C)C(=O)N[C@@H](CCC(N)=O)C(=O)N[C@@H](CCC(=O)O)C(=O)N[C@@H](Cc1ccccc1)C(=O)N[C@H](C(=O)NC(C)(C)C(=O)N[C@@H](Cc1c[nH]c2ccccc12)C(=O)N[C@@H](CC(C)C)C(=O)N[C@@H](CCC(=O)O)C(=O)N[C@@H](CC(=O)O)C(=O)N[C@@H](CCC(=O)O)C(=O)N1CCC[C@H]1C(=O)N[C@@H](CO)C(=O)N[C@@H](CO)C(=O)NCC(=O)N[C@@H](C)C(=O)N1CCC[C@H]1C(=O)N1CCC[C@H]1C(=O)N1CCC[C@H]1C(=O)N[C@@H](CO)C(=O)O)C(C)C
B2: Compound A29 (peptide)
peptide: YSHGTFTSDYSKYLD[Aib]KRAQEFV[Aib]WLEDEPKSGAPPPS-OH
modifications: N-terminus assumed
SMILES: CC(C)C[C@H](NC(=O)[C@H](Cc1ccc(O)cc1)NC(=O)[C@H](CCCCN)NC(=O)[C@H](CO)NC(=O)[C@H](Cc1ccc(O)cc1)NC(=O)[C@H](CC(=O)O)NC(=O)[C@H](CO)NC(=O)[C@@H](NC(=O)[C@H](Cc1ccccc1)NC(=O)[C@@H](NC(=O)CNC(=O)[C@H](Cc1c[nH]cn1)NC(=O)[C@H](CO)NC(=O)[C@@H](N)Cc1ccc(O)cc1)[C@@H](C)O)[C@@H](C)O)C(=O)N[C@@H](CC(=O)O)C(=O)NC(C)(C)C(=O)N[C@@H](CCCCN)C(=O)N[C@@H](CCCNC(=N)N)C(=O)N[C@@H](C)C(=O)N[C@@H](CCC(N)=O)C(=O)N[C@@H](CCC(=O)O)C(=O)N[C@@H](Cc1ccccc1)C(=O)N[C@H](C(=O)NC(C)(C)C(=O)N[C@@H](Cc1c[nH]c2ccccc12)C(=O)N[C@@H](CC(C)C)C(=O)N[C@@H](CCC(=O)O)C(=O)N[C@@H](CC(=O)O)C(=O)N[C@@H](CCC(=O)O)C(=O)N1CCC[C@H]1C(=O)N[C@@H](CCCCN)C(=O)N[C@@H](CO)C(=O)NCC(=O)N[C@@H](C)C(=O)N1CCC[C@H]1C(=O)N1CCC[C@H]1C(=O)N1CCC[C@H]1C(=O)N[C@@H](CO)C(=O)O)C(C)C
B3: Compound A30 (peptide)
peptide: YSHGTFTSDYSKYLD[Aib]KRAQEFV[Aib]WLEDEPSKGAPPPS-OH
modifications: N-terminus assumed
SMILES: CC(C)C[C@H](NC(=O)[C@H](Cc1ccc(O)cc1)NC(=O)[C@H](CCCCN)NC(=O)[C@H](CO)NC(=O)[C@H](Cc1ccc(O)cc1)NC(=O)[C@H](CC(=O)O)NC(=O)[C@H](CO)NC(=O)[C@@H](NC(=O)[C@H](Cc1ccccc1)NC(=O)[C@@H](NC(=O)CNC(=O)[C@H](Cc1c[nH]cn1)NC(=O)[C@H](CO)NC(=O)[C@@H](N)Cc1ccc(O)cc1)[C@@H](C)O)[C@@H](C)O)C(=O)N[C@@H](CC(=O)O)C(=O)NC(C)(C)C(=O)N[C@@H](CCCCN)C(=O)N[C@@H](CCCNC(=N)N)C(=O)N[C@@H](C)C(=O)N[C@@H](CCC(N)=O)C(=O)N[C@@H](CCC(=O)O)C(=O)N[C@@H](Cc1ccccc1)C(=O)N[C@H](C(=O)NC(C)(C)C(=O)N[C@@H](Cc1c[nH]c2ccccc12)C(=O)N[C@@H](CC(C)C)C(=O)N[C@@H](CCC(=O)O)C(=O)N[C@@H](CC(=O)O)C(=O)N[C@@H](CCC(=O)O)C(=O)N1CCC[C@H]1C(=O)N[C@@H](CO)C(=O)N[C@@H](CCCCN)C(=O)NCC(=O)N[C@@H](C)C(=O)N1CCC[C@H]1C(=O)N1CCC[C@H]1C(=O)N1CCC[C@H]1C(=O)N[C@@H](CO)C(=O)O)C(C)C
B4: Compound A31 (peptide)
peptide: YSHGTFTSDYSKYLD[Aib]KRAQEFV[Aib]WLEDEPESGAPPPS-OH
modifications: N-terminus assumed
SMILES: CC(C)C[C@H](NC(=O)[C@H](Cc1ccc(O)cc1)NC(=O)[C@H](CCCCN)NC(=O)[C@H](CO)NC(=O)[C@H](Cc1ccc(O)cc1)NC(=O)[C@H](CC(=O)O)NC(=O)[C@H](CO)NC(=O)[C@@H](NC(=O)[C@H](Cc1ccccc1)NC(=O)[C@@H](NC(=O)CNC(=O)[C@H](Cc1c[nH]cn1)NC(=O)[C@H](CO)NC(=O)[C@@H](N)Cc1ccc(O)cc1)[C@@H](C)O)[C@@H](C)O)C(=O)N[C@@H](CC(=O)O)C(=O)NC(C)(C)C(=O)N[C@@H](CCCCN)C(=O)N[C@@H](CCCNC(=N)N)C(=O)N[C@@H](C)C(=O)N[C@@H](CCC(N)=O)C(=O)N[C@@H](CCC(=O)O)C(=O)N[C@@H](Cc1ccccc1)C(=O)N[C@H](C(=O)NC(C)(C)C(=O)N[C@@H](Cc1c[nH]c2ccccc12)C(=O)N[C@@H](CC(C)C)C(=O)N[C@@H](CCC(=O)O)C(=O)N[C@@H](CC(=O)O)C(=O)N[C@@H](CCC(=O)O)C(=O)N1CCC[C@H]1C(=O)N[C@@H](CCC(=O)O)C(=O)N[C@@H](CO)C(=O)NCC(=O)N[C@@H](C)C(=O)N1CCC[C@H]1C(=O)N1CCC[C@H]1C(=O)N1CCC[C@H]1C(=O)N[C@@H](CO)C(=O)O)C(C)C
B5: Compound A28 (peptide)
peptide: YSHGTFTSDYSKYLD[Aib]KRAQEFV[Aib]WLEDEGPSSGAPPPS-OH
modifications: N-terminus assumed
SMILES: CC(C)C[C@H](NC(=O)[C@H](Cc1ccc(O)cc1)NC(=O)[C@H](CCCCN)NC(=O)[C@H](CO)NC(=O)[C@H](Cc1ccc(O)cc1)NC(=O)[C@H](CC(=O)O)NC(=O)[C@H](CO)NC(=O)[C@@H](NC(=O)[C@H](Cc1ccccc1)NC(=O)[C@@H](NC(=O)CNC(=O)[C@H](Cc1c[nH]cn1)NC(=O)[C@H](CO)NC(=O)[C@@H](N)Cc1ccc(O)cc1)[C@@H](C)O)[C@@H](C)O)C(=O)N[C@@H](CC(=O)O)C(=O)NC(C)(C)C(=O)N[C@@H](CCCCN)C(=O)N[C@@H](CCCNC(=N)N)C(=O)N[C@@H](C)C(=O)N[C@@H](CCC(N)=O)C(=O)N[C@@H](CCC(=O)O)C(=O)N[C@@H](Cc1ccccc1)C(=O)N[C@H](C(=O)NC(C)(C)C(=O)N[C@@H](Cc1c[nH]c2ccccc12)C(=O)N[C@@H](CC(C)C)C(=O)N[C@@H](CCC(=O)O)C(=O)N[C@@H](CC(=O)O)C(=O)N[C@@H](CCC(=O)O)C(=O)NCC(=O)N1CCC[C@H]1C(=O)N[C@@H](CO)C(=O)N[C@@H](CO)C(=O)NCC(=O)N[C@@H](C)C(=O)N1CCC[C@H]1C(=O)N1CCC[C@H]1C(=O)N1CCC[C@H]1C(=O)N[C@@H](CO)C(=O)O)C(C)C
B6: Compound A32 (peptide)
peptide: YTHGTFTSDYSKWLD[Aib]KRAQEFV[Aib]WLEDEPSSGAPPPS-OH
modifications: N-terminus assumed
SMILES: CC(C)C[C@H](NC(=O)[C@H](Cc1c[nH]c2ccccc12)NC(=O)[C@H](CCCCN)NC(=O)[C@H](CO)NC(=O)[C@H](Cc1ccc(O)cc1)NC(=O)[C@H](CC(=O)O)NC(=O)[C@H](CO)NC(=O)[C@@H](NC(=O)[C@H](Cc1ccccc1)NC(=O)[C@@H](NC(=O)CNC(=O)[C@H](Cc1c[nH]cn1)NC(=O)[C@@H](NC(=O)[C@@H](N)Cc1ccc(O)cc1)[C@@H](C)O)[C@@H](C)O)[C@@H](C)O)C(=O)N[C@@H](CC(=O)O)C(=O)NC(C)(C)C(=O)N[C@@H](CCCCN)C(=O)N[C@@H](CCCNC(=N)N)C(=O)N[C@@H](C)C(=O)N[C@@H](CCC(N)=O)C(=O)N[C@@H](CCC(=O)O)C(=O)N[C@@H](Cc1ccccc1)C(=O)N[C@H](C(=O)NC(C)(C)C(=O)N[C@@H](Cc1c[nH]c2ccccc12)C(=O)N[C@@H](CC(C)C)C(=O)N[C@@H](CCC(=O)O)C(=O)N[C@@H](CC(=O)O)C(=O)N[C@@H](CCC(=O)O)C(=O)N1CCC[C@H]1C(=O)N[C@@H](CO)C(=O)N[C@@H](CO)C(=O)NCC(=O)N[C@@H](C)C(=O)N1CCC[C@H]1C(=O)N1CCC[C@H]1C(=O)N1CCC[C@H]1C(=O)N[C@@H](CO)C(=O)O)C(C)C
B7: Compound A34 (peptide)
peptide: YTHGTFTSDHSKWLD[Aib]KRAQEFV[Aib]WLEDEPSSGAPPPS-OH
modifications: N-terminus assumed
SMILES: CC(C)C[C@H](NC(=O)[C@H](Cc1c[nH]c2ccccc12)NC(=O)[C@H](CCCCN)NC(=O)[C@H](CO)NC(=O)[C@H](Cc1c[nH]cn1)NC(=O)[C@H](CC(=O)O)NC(=O)[C@H](CO)NC(=O)[C@@H](NC(=O)[C@H](Cc1ccccc1)NC(=O)[C@@H](NC(=O)CNC(=O)[C@H](Cc1c[nH]cn1)NC(=O)[C@@H](NC(=O)[C@@H](N)Cc1ccc(O)cc1)[C@@H](C)O)[C@@H](C)O)[C@@H](C)O)C(=O)N[C@@H](CC(=O)O)C(=O)NC(C)(C)C(=O)N[C@@H](CCCCN)C(=O)N[C@@H](CCCNC(=N)N)C(=O)N[C@@H](C)C(=O)N[C@@H](CCC(N)=O)C(=O)N[C@@H](CCC(=O)O)C(=O)N[C@@H](Cc1ccccc1)C(=O)N[C@H](C(=O)NC(C)(C)C(=O)N[C@@H](Cc1c[nH]c2ccccc12)C(=O)N[C@@H](CC(C)C)C(=O)N[C@@H](CCC(=O)O)C(=O)N[C@@H](CC(=O)O)C(=O)N[C@@H](CCC(=O)O)C(=O)N1CCC[C@H]1C(=O)N[C@@H](CO)C(=O)N[C@@H](CO)C(=O)NCC(=O)N[C@@H](C)C(=O)N1CCC[C@H]1C(=O)N1CCC[C@H]1C(=O)N1CCC[C@H]1C(=O)N[C@@H](CO)C(=O)O)C(C)C

Each binder was assayed against human glucagon receptor (GCGR) (human, UniProt P47871 26-477) (assay: cell-based or functional assay).

Q: How did the “hGCGR pEC50 (cAMP)” value turn out when B1 was run?
A: The value was 10.9 pEC50.

Q: B2 was tested. Which “hGCGR pEC50 (cAMP)” value did it give?
A: The value was 11.1 pEC50.

Q: How did the “hGCGR pEC50 (cAMP)” value turn out when B3 was run?
A: The value was 10.9 pEC50.

Q: How did the “hGCGR pEC50 (cAMP)” value turn out when B4 was run?
A: Its value is 11.7 pEC50.

Q: Which “hGCGR pEC50 (cAMP)” value does the source give for B5 here?
A: The value was 12.2 pEC50.

Q: For B6, which “hGCGR pEC50 (cAMP)” value is on record?
A: The value was 12.5 pEC50.

Q: How did the “hGCGR pEC50 (cAMP)” value turn out when B7 was run?
A: Its value is 10.3 pEC50.

What follows are binders tested against human GLP-1 receptor (GLP-1R) (human, UniProt P43220 24-463) (assay: cell-based or functional assay).
human GLP-1 receptor (GLP-1R), sequence (P43220 24-463): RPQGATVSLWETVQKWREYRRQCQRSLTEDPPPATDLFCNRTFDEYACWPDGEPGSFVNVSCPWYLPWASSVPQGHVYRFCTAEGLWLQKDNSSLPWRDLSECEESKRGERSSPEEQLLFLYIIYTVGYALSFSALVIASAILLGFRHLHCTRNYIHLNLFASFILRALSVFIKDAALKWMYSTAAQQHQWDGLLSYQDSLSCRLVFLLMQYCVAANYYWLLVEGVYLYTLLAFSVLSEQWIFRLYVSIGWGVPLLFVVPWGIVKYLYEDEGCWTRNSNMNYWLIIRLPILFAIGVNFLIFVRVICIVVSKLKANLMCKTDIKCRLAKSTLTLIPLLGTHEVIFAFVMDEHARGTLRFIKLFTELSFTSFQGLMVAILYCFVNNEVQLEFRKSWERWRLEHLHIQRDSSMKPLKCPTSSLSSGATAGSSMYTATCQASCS

Q: How did the “hGLP1 pEC50 (cAMP)” value turn out when B1 was run?
A: Its value is less than 9 pEC50.

Q: For B2, which “hGLP1 pEC50 (cAMP)” value is on record?
A: Its value is less than 9 pEC50.

Q: B3 was tested. Which “hGLP1 pEC50 (cAMP)” value did it give?
A: The value was less than 9 pEC50.

Q: How did the “hGLP1 pEC50 (cAMP)” value turn out when B4 was run?
A: Its value is less than 9 pEC50.

Q: Which “hGLP1 pEC50 (cAMP)” value does the source give for B5 here?
A: Its value is less than 9 pEC50.

Q: Which “hGLP1 pEC50 (cAMP)” value does the source give for B6 here?
A: The value was less than 9 pEC50.

Q: B7 was tested. Which “hGLP1 pEC50 (cAMP)” value did it give?
A: Its value is less than 9 pEC50.
